Key:
[1] = test system: bovine brain capillary endothelial cells (BBCECs); test: Transcytosis of 125I-proteins across BBCEC monolayers (in vitro blood-brain barrier model); conditions: for Ratios (x-fold), 125I-proteins transcytosis across BBCEC monolayers: 250 nM; for Ratios (x-fold), 125I-proteins transcytosis across BBCEC monolayers / Ratios Aprotinin/Protein: aprotinin transcytosis divided by that of the named protein; for Transcytosis: across in vitro BBB model
Procedure: The model consists of a co-culture of bovine brain capillary endothelial cells and rat glial cells.
The in vitro model of BBB was established by using a co-culture of BBCECs and astrocytes. Prior to cell culture, plate inserts (Millicell-PC 3.0 μM; 30-mm diameter) were coated on the upper side with rat tail collagen. They were then set in six-well microplates containing the astrocytes and BBCECs were plated on the upper side of the filters in 2 mL of co-culture medium. This BBCEC medium was changed three times a week. Under these conditions, differentiated BBCECs formed a confluent monolayer 7 days later. Experiments were performed between 5 and 7 days after confluence was reached. The permeability coefficient for sucrose was measured to verify the endothelial permeability.
Briefly, after removing the meninges, the brain tissue was forced gently through a 82 μm nylon sieve. Astrocytes were plated on six-well microplates at a concentration of 1.2×10^5 cells/mL in 2 mL of optimal culture medium (DMEM) supplemented with 10% heat inactivated fetal bovine serum. The medium was changed twice a week.
Bovine brain capillary endothelial cells (BBCECs) were obtained from Cellial Technologies. The cells were cultured in the presence of DMEM medium supplemented with 10% (v/v) horse serum and 10% heat-inactivated calf serum, 2 mM of glutamine, 50 μg/mL of gentamycin, and 1 ng/mL of basic fibroblast growth factor, added every other day.
One insert covered with BBCECs was set into a six-well microplate with 2 mL of Ringer-Hepes and was pre-incubated for 2 h at 37° C. [^125I]-aprotinin, [^125I]-p97, [^125I]-ceruloplasmin or [^125I]-transferrin (250 nM final concentration) was added to the upper side of the filter covered with cells. At various times, the insert was transferred to another well to avoid a possible reendocytosis of [^125I]-proteins by the abluminal side of the BBCECs. At the end of experiment, [^125I]-proteins were assessed in 500 μL of the lower chamber of well by TCA precipitation.
Aprotinin, p97 and bovine holo-transferrin were iodinated with standard procedures using iodo-beads from Sigma™. Bovine holo-transferrin was diluted in 0.1M phosphate buffer, pH 6.5 (PB). P97 obtained from Synapse Technologies in neutralized citrate at pH 7.0 was dialyzed against this PB. Two iodo-beads were used for each protein. These beads were washed twice with 3 mL of PB on a Whatman™ filter and resuspended in 60 μL of PB. ^125I (1 mCi) from Amersham-Pharmacia biotech was added to the bead suspension for 5 minutes at room temperature. The iodination for each protein was initiated by the addition of 100 μg (80-100 μL).

[2] = test system: endothelial cell monolayers (in vitro blood-brain barrier model); test: Permeability coefficient (Pe) of proteins in the in vitro blood-brain barrier model
Procedure: The permeability coefficient (Pe) was calculated as:
At the end of the experiments, amounts of the radiotracers in the basolateral compartment were measured in a liquid scintillation counter. The permeability coefficient (Pe) for sucrose was calculated as previously described (Dehouck, M. P., Jolliet-Riant, P., Brée, F., Fruchart, J. C., Cecchelli, R., Tillement, J. P., J. Neurochem. 58:1790-1797, 1992) using filters coated or non-coated with EC.
The transport of Angio-pep1 from the apical-to-basolateral side of inserts covered with or without endothelial cell monolayers was measured. The results are expressed as the clearance of Angio-pep1 as a function of time. The slopes correspond to the permeability of the peptide through the filter alone (Psf) and to the total permeability of the endothelial cell monolayers (Pst).
The permeability coefficients for Angio-pep1, aprotinin, leptin and transferrin were determined using the in vitro blood-brain barrier model. The permeability coefficient (Pe) was calculated as described above.

Molecule | effect on aprotinin transcytosis ([1]; [125I]-aprotinin 250 nM with or without RAP, 37° C., FIG. 14) | Ratios (x-fold), 125I-proteins transcytosis across BBCEC monolayers [1] [x-fold] | Transcytosis [1] [pmol/h/cm^2] | Ratios Aprotinin/Protein [1] | Ratios (permeability coefficients) ([2]; Pe of Angio-pep1 divided by Pe of the named protein) | Permeability coefficient (Pe) ([2]; in vitro blood-brain barrier model) [×10⁻⁶ cm/s]
receptor-associated protein (RAP): LRP antagonist, receptor-associated protein (protein, UniProt P30533 35-357, looked up) Alpha-2-macroglobulin …: YSREKNQPKPSPKRESGEEFRMEKLNQLWEKAQRLHLPPVRLAELHADLKIQERDELAWKKLKLDGLDEDGEKEARLIRNLNVILAKYGLDGKKDARQVTSNSLSGTQEDGLDDPRLEKLWHKAKTSGKFSGEELDKLWREFLHHKEKVHEYNVLLETLSRTEEIHENVISPSDLSDIKGSVLHSRHTELKEKLRSINQGLDRLRRVSHQGYSTEAEFEEPRVIDLWDLAQSANLTDKELEAFREELKHFEAKIEKHNHYQKQLEIAHEKLRHAESVGDGERVSRSREKHALLEGRTKELGYTVKKHLQDLSGRISRARHNEL | inhibition |  |  |  |  | 
Melanotransferrin (p97): comparison protein, p97 obtained from Synapse Technologies (protein, UniProt P08582 20-709, looked up) Melanotransferrin: GMEVRWCATSDPEQHKCGNMSEAFREAGIQPSLLCVRGTSADHCVQLIAAQEADAITLDGGAIYEAGKEHGLKPVVGEVYDQEVGTSYYAVAVVRRSSHVTIDTLKGVKSCHTGINRTVGWNVPVGYLVESGRLSVMGCDVLKAVSDYFGGSCVPGAGETSYSESLCRLCRGDSSGEGVCDKSPLERYYDYSGAFRCLAEGAGDVAFVKHSTVLENTDGKTLPSWGQALLSQDFELLCRDGSRADVTEWRQCHLARVPAHAVVVRADTDGGLIFRLLNEGQRLFSHEGSSFQMFSSEAYGQKDLLFKDSTSELVPIATQTYEAWLGHEYLHAMKGLLCDPNRLPPYLRWCVLSTPEIQKCGDMAVAFRRQRLKPEIQCVSAKSPQHCMERIQAEQVDAVTLSGEDIYTAGKTYGLVPAAGEHYAPEDSSNSYYVVAVVRRDSSHAFTLDELRGKRSCHAGFGSPAGWDVPVGALIQRGFIRPKDCDVLTAVSEFFNASCVPVNNPKNYPSSLCALCVGDEQGRNKCVGNSQERYYGYRGAFRCLVENAGDVAFVRHTTVFDNTNGHNSEPWAAELRSEDYELLCPNGARAEVSQFAACNLAQIPPHAVMVRPDTNIFTVYGLLDKAQDLFGDDHNKNGFKMFDSSNYHGQDLLFKDATVRAVPVGEKTTYRGWLGLDYVAALEGMSSQQC |  | 8.2 | 0.28 | 10 |  | 
ceruloplasmin: comparison protein in transcytosis experiments (protein, UniProt P00450 20-1065, looked up) Ceruloplasmin: KEKHYYIGIIETTWDYASDHGEKKLISVDTEHSNIYLQNGPDRIGRLYKKALYLQYTDETFRTTIEKPVWLGFLGPIIKAETGDKVYVHLKNLASRPYTFHSHGITYYKEHEGAIYPDNTTDFQRADDKVYPGEQYTYMLLATEEQSPGEGDGNCVTRIYHSHIDAPKDIASGLIGPLIICKKDSLDKEKEKHIDREFVVMFSVVDENFSWYLEDNIKTYCSEPEKVDKDNEDFQESNRMYSVNGYTFGSLPGLSMCAEDRVKWYLFGMGNEVDVHAAFFHGQALTNKNYRIDTINLFPATLFDAYMVAQNPGEWMLSCQNLNHLKAGLQAFFQVQECNKSSSKDNIRGKHVRHYYIAAEEIIWNYAPSGIDIFTKENLTAPGSDSAVFFEQGTTRIGGSYKKLVYREYTDASFTNRKERGPEEEHLGILGPVIWAEVGDTIRVTFHNKGAYPLSIEPIGVRFNKNNEGTYYSPNYNPQSRSVPPSASHVAPTETFTYEWTVPKEVGPTNADPVCLAKMYYSAVEPTKDIFTGLIGPMKICKKGSLHANGRQKDVDKEFYLFPTVFDENESLLLEDNIRMFTTAPDQVDKEDEDFQESNKMHSMNGFMYGNQPGLTMCKGDSVVWYLFSAGNEADVHGIYFSGNTYLWRGERRDTANLFPQTSLTLHMWPDTEGTFNVECLTTDHYTGGMKQKYTVNQCRRQSEDSTFYLGERTYYIAAVEVEWDYSPQREWEKELHHLQEQNVSNAFLDKGEFYIGSKYKKVVYRQYTDSTFRVPVERKAEEEHLGILGPQLHADVGDKVKIIFKNMATRPYSIHAHGVQTESSTVTPTLPGETLTYVWKIPERSGAGTEDSACIPWAYYSTVDQVKDLYSGLIGPLIVCRRPYLKVFNPRRKLEFALLFLVFDENESWYLDDNIKTYSDHPEKVNKDDEEFIESNKMHAINGRMFGNLQGLTMHVGDEVNWYLMGMGNEIDLHTVHFHGHSFQYKHRGVYSSDVFDIFPGTYQTLEMFPRTPGIWLLHCHVTDHIHAGMETTYTVLQNEDTKSG |  | 44.0 |  |  |  | 
Transferrin: comparison protein, bovine holo-transferrin (protein, UniProt Q29443 20-704, looked up, holo (iron-loaded)) Serotransferrin: DPERTVRWCTISTHEANKCASFRENVLRILESGPFVSCVKKTSHMDCIKAISNNEADAVTLDGGLVYEAGLKPNNLKPVVAEFHGTKDNPQTHYYAVAVVKKDTDFKLNELRGKKSCHTGLGRSAGWNIPMAKLYKELPDPQESIQRAAANFFSASCVPCADQSSFPKLCQLCAGKGTDKCACSNHEPYFGYSGAFKCLMEGAGDVAFVKHSTVFDNLPNPEDRKNYELLCGDNTRKSVDDYQECYLAMVPSHAVVARTVGGKEDVIWELLNHAQEHFGKDKPDNFQLFQSPHGKDLLFKDSADGFLKIPSKMDFELYLGYEYVTALQNLRESKPPDSSKDECMVKWCAIGHQERTKCDRWSGFSGGAIECETAENTEECIAKIMKGEADAMSLDGGYLYIAGKCGLVPVLAENYKTEGESCKNTPEKGYLAVAVVKTSDANINWNNLKDKKSCHTAVDRTAGWNIPMGLLYSKINNCKFDEFFSAGCAPGSPRNSSLCALCIGSEKGTGKECVPNSNERYYGYTGAFRCLVEKGDVAFVKDQTVIQNTDGNNNEAWAKNLKKENFEVLCKDGTRKPVTDAENCHLARGPNHAVVSRKDKATCVEKILNKQQDDFGKSVTDCTSNFCLFQSNSKDLLFRDDTKCLASIAKKTYDSYLGDDYVRAMTNLRQCSTSKLLEACTFHKP |  | 11.6 | 0.14 | 19 | 210 | 0.095
Lactoferrin: comparison protein in transcytosis experiment (protein, UniProt P02788 20-710, looked up) Lactotransferrin: GRRRSVQWCAVSQPEATKCFQWQRNMRKVRGPPVSCIKRDSPIQCIQAIAENRADAVTLDGGFIYEAGLAPYKLRPVAAEVYGTERQPRTHYYAVAVVKKGGSFQLNELQGLKSCHTGLRRTAGWNVPIGTLRPFLNWTGPPEPIEAAVARFFSASCVPGADKGQFPNLCRLCAGTGENKCAFSSQEPYFSYSGAFKCLRDGAGDVAFIRESTVFEDLSDEAERDEYELLCPDNTRKPVDKFKDCHLARVPSHAVVARSVNGKEDAIWNLLRQAQEKFGKDKSPKFQLFGSPSGQKDLLFKDSAIGFSRVPPRIDSGLYLGSGYFTAIQNLRKSEEEVAARRARVVWCAVGEQELRKCNQWSGLSEGSVTCSSASTTEDCIALVLKGEADAMSLDGGYVYTAGKCGLVPVLAENYKSQQSSDPDPNCVDRPVEGYLAVAVVRRSDTSLTWNSVKGKKSCHTAVDRTAGWNIPMGLLFNQTGSCKFDEYFSQSCAPGSDPRSNLCALCIGDEQGENKCVPNSNERYYGYTGAFRCLAENAGDVAFVKDVTVLQNTDGNNNEAWAKDLKLADFALLCLDGKRKPVTEARSCHLAMAPNHAVVSRMDKVERLKQVLLHQQAKFGRNGSDCPDKFCLFQSETKNLLFNDNTECLARLHGKTTYEKYLGPQYVAGITNLKKCSTSPLLEACEFLRK |  |  | 0.05 | 50 |  | 

From patent US9221867B2, “Method for transporting a compound across the blood-brain barrier” (Angiochem Inc., priority 2003, dated 2015)
